# Measurements from patent US20240091260A1.
# Biological target: PRAME … (ALY) peptide in complex with HLA-A*0201 (HLA-A2) (human)
# Assay: cell-based or functional assay
substance,measurement,value
"PRAME mTCRCAR (chimeric antigen receptor with an scFv from Pr20, IgG4 hinge, 4-1BB costimulatory and CD3zeta signaling domains), on human T cells",cell death of neuroblastoma cells (SK-N-SH) with CD8+ CAR T cells at 24 hours,98%
